Earlier results in publication PMC11211486.

Tests used:
PBP4 (Escherichia coli) = PBP4 (Escherichia coli) (UniProt P24228)
MepS (Escherichia coli) = MepS (Escherichia coli) (UniProt P0AFV4)
MepM (Escherichia coli) = MepM (Escherichia coli) (UniProt P0AFS9)

Measured: Kd

Chain of NlpI (C4ZSQ4 19-294): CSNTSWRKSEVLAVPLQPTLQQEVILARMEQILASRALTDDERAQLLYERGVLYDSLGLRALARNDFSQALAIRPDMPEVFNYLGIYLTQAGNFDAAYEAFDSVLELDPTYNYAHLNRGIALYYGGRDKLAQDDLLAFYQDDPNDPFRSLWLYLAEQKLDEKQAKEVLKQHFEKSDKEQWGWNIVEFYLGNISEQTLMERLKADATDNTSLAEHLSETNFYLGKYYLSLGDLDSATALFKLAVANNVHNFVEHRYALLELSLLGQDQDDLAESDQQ
Chain of MepM (Escherichia coli) (P0AFS9 whole entry): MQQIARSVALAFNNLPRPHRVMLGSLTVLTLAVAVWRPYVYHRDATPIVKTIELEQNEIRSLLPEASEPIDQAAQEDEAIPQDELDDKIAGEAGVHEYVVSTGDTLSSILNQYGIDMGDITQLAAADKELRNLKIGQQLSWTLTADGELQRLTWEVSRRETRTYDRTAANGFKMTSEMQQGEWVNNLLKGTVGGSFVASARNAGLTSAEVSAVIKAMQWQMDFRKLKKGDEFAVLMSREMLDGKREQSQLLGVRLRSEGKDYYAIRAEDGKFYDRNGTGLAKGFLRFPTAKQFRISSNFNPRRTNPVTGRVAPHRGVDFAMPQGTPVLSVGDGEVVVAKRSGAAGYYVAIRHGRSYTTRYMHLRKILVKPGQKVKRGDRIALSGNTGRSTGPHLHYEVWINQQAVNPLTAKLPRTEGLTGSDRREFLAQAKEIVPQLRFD
Chain of MepS (Escherichia coli) (P0AFV4 27-188): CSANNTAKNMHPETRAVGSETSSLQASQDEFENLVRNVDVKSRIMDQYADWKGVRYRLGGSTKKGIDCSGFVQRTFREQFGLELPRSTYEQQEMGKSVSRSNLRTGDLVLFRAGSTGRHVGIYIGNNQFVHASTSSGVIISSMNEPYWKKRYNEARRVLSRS
Chain of PBP4 (Escherichia coli) (P24228 21-477): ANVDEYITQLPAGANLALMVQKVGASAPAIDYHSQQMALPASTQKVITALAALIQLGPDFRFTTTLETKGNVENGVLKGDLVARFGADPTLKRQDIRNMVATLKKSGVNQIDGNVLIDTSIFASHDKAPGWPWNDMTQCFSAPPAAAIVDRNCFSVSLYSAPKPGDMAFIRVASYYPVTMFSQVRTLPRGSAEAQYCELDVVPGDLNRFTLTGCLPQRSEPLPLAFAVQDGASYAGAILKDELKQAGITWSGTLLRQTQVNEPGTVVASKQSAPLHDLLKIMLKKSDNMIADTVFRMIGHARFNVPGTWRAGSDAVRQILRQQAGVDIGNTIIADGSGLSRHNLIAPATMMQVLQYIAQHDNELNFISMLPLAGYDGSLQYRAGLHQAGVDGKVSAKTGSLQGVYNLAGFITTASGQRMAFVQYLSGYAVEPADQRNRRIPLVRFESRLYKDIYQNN

NlpI (from UniProt C4ZSQ4)
150 nM: all assays above
